Measured values taken from PMC12724217.

What was measured:
[1] = biological target: human chromosomal region maintenance 1 (CRM1) (UniProt O14980); test: two-hybrid
[2] = biological target: human chromosomal region maintenance 1 (CRM1) (UniProt O14980); test: mammalian two-hybrid (CheckMate system) luciferase assay; settings: HEK-293 cells, 100 ng pG5luc reporter plasmid, 96 hours transfection, read off a plot; for percent of parent: parent: est. 100

Substance	percent of parent [2]	response (fold induction) ([2]; parent: est. 5.7)	other results
DHOV M I121A (natural protein)	–	–	reduction of the firefly luciferase signal relative to WT M [1]: > 10%
DHOV M I121S (natural protein)	–	–	reduction of the firefly luciferase signal relative to WT M [1]: > 10%
DHOV M L122A (natural protein)	–	–	firefly luciferase signal as percent of WT M [1]: < 70 % of WT M
DHOV M L122S (natural protein)	–	–	firefly luciferase signal as percent of WT M [1]: < 70 % of WT M
Dhori virus (DHOV) matrix protein (M) I121A; L122A	86 % of WT M	–	response (fold induction) ([2]; parent: est. 5.2): 4.5
Dhori virus (DHOV) matrix protein (M) I121S; L122S	90 % of WT M	–	response (fold induction) ([2]; parent: est. 5.2): 4.7
Dhori virus (DHOV) matrix protein (M) I127A	–	11	–
Dhori virus (DHOV) matrix protein (M) I127S	–	14	–
Dhori virus (DHOV) matrix protein (M) L116A	74 % of WT M	4.2	–
Dhori virus (DHOV) matrix protein (M) L116S	92 % of WT M	5.3	–
Dhori virus (DHOV) matrix protein (M) L120A	130 % of WT M	7.6	–
Dhori virus (DHOV) matrix protein (M) L120S	140 % of WT M	7.7	–
Dhori virus (DHOV) matrix protein (M) M119A	100 % of WT M	5.8	–
Dhori virus (DHOV) matrix protein (M) M119S	130 % of WT M	7.3	–
Dhori virus (DHOV) matrix protein (M) V115A	110 % of WT M	6	–
Dhori virus (DHOV) matrix protein (M) V115A; L116A; M119A; L120A; I121A; L122A; I127A	27 % of WT M	–	response (fold induction) ([2]; parent: est. 5.2): 1.4
Dhori virus (DHOV) matrix protein (M) V115G; L116G; M119G; L120G; I121G; L122G; I127G	27 % of WT M	–	response (fold induction) ([2]; parent: est. 5.2): 1.4
Dhori virus (DHOV) matrix protein (M) V115R; L116R; M119R; L120R; I121R; L122R; I127R	27 % of WT M	–	response (fold induction) ([2]; parent: est. 5.2): 1.4
Dhori virus (DHOV) matrix protein (M) V115S	110 % of WT M	6.2	–
